Reference: patent publication US20230176070A1 (published 2023)
Numbering of substitutions follows the chain as printed.

B1: G82 (VHH)
VHH: HVQLVESGGGLVQAGGSLRLSCAASGKIFSLSTMGWYRQAPGKQRELVAALTSGGSTNYADSVKGRFTISRDNAKYTTYLQMNSLKPEDTAVYYCNVRYYSGYDGYESNSWGQGTQVTVSS
B2: G13 (VHH)
VHH: DVQLVESGGGVVQAGGSLRLSCAASGRTFSDYAMGWFRQAPGKEREFVAGVSWSGVDTYYADSVKGRFTISRDNAKNTLYVQMNSLKPEDTAVYYCAAQRYYHGHAKNMRYDYWGQGTQVTVSS
notes: also called G13(C3)
B3: G38 (VHH)
VHH: EVQLVESGGGLVQAGGSLRLSCVASGHTDCISGMGWYRQAPGKERELVAVLIGGGNTYYGDSVKGRFTISKDKAKNTLYLQMKTLKPEDMAVYYCTADDHGSECPNKEMSSTATYWGQGTQVTVSS
B4: G47 (VHH)
VHH: QVQLVESGGGLVQAGGSLRLSCAASERIFSNYAMGWFRQAPGKEREFVASIRGSGSQTSYADSVKGRFTISRDGAKDTVDLQMNSLKPEDTAVYYCSAKKYCGSTYNRAEGYDYWGQGTQVTVSS
B5: G76 (VHH)
VHH: QVQLVESGGGLVQPGGSLRLSCVVSGFPFSEYAMSWVRQTPEKGREWVSGIYTDGSETLYENSVKGRFTISRDNTKNTLYLQMNNLKPEDTARYYCKLGDPYGVGLRDYEYLGHGTQVTVSS
B6: G85 (VHH)
VHH: HVQLVESGGGLVQPGGSLRLSCAASGFTFSTYAMGWVRQAPGKGPEWVATIYSKGDTTHYANSAKGRFTISRDNARNTLYLQMNSLKPEDTAVYYCAKGISDSYLRVESNYRGQGTQVTVSS
B7: H24 (VHH)
VHH: QVQLVESGGGLVQAGGSLRLSCVSSGRTYRWNAMGWFRQAPGKEREFVAAIDWDGRNTDYADSVKGRFTISRDNAKNTVYLQMNSLKVEDTAIYYCAAREWGSGGYSSIASYAYWGQGTQVTVSS
B8: G83 (VHH)
VHH: QVQLVESGGGLVQAGGSLRLSCAASRRTFSIYNMGWFRQAPGKEREFVATITRYGDRTYTADSVKGRFTISSDQAKNTVYLQMNSLNPHDTAVYYCAADSAYSGPDFKHYDYWGQGTQVTVSS
B9: G2 (VHH)
VHH: EVQLVESGGDLVQAGGSLRLSCSASGNIFKINDMGWYRQAPGKQRELVARISSSGNTNYADSVKGRFTISRDNGKNTVYLQMNRVKPEDTAVYYCNADVQVSRNYEYEYWGQGTQVTVSS
B10: G48 (VHH)
VHH: QVQLVESGGGLVQAGGSLRLSCAASGRTFSTLSMGWFRQAPGQGREFVGGINYDGSSVEYADSVKGRFTISRDNAKNMMYLQMNSLKPEDTAAYYCASSRGYNTGTNPLGYDVWGQGTQVTVSS
B11: G5 (VHH)
VHH: EVQLVESGGGVVQPGGSLTLSCAASGFAFRNYAMSWVRQAPGKGPEWVSQINGRGGYTSYADSVKGRFTISRDNTKNTLYLQMNNLKPDDTAVYYCAKDPTQLRWIPVPNYILGSTKGQGTQVTVSS
B12: G32 (VHH)
VHH: QVQLVESGGGLVRAGDSLRLSCVVSGRPISSYAMAWFRQAPGKDREVVAGISANGDRTHYADSIKGRFTVSRDNAKNSMTLQMNKLKPEDTAVYYCAADSLTEGGYGLTGDFDYWGQGTQVTVSS
B13: H1 (VHH)
VHH: QVQLVESGGGLVQPGGSLRLSCVASGIMFDIYTMRWYRQAPGKQRELVAAITGAGRANYNDDSVKGRFTISRDNAKNTVYLQMNRMKPEDTALYECNTEILGGGPNYWGRGTQVTVSE
B14: G33 (VHH)
VHH: QMGRNSAEVQLVESGGSLRLSCSVSGGPFTSNGMGWYRQAPGKEREWVAAITNSGSANYADSVKGRFTVSMVNANNTMYLQMNNLKPDDTAVYYCNVAGWPHGYWGQGTQVTVSS
B15: G7 (VHH)
VHH: QVQLVESGGGLVQPGDSLRLSCAVSGQYVNMAAMGWFRQAPGKEREFVAGISWSDDTDIADSVKGRFTISRDHGKNTVDLQMNSLKPEDTGVYLCAGRFRRLAKDFGEYDYWGQGTQVTVSS
B16: G95 (VHH)
VHH: HVQLVESGGGLVQAGGSLRLSCAASGRTFSSYAMAWFRQAVGKEREFVAAVSRSGTNLYYADSVKGRFTISRDTAKNTMYLQMNSLKPEDTALYYCAAGEALRWGIGQQPRSEFFDYWGQGTQVTVSS
notes: also called G95(C2)
B17: G36 (VHH)
VHH: QMGRNSAQVQLVESGGSLRLSCAASGFALSNSYMKWVRQAPGKGPEWVSTIYADGSTYYTDSVKGRFITSRDNSKNTMYLQMSDLKPEDTAVYYCANPSAKGQGTQVTVSS
B18: H15 (VHH)
VHH: QVQLVESGGGLVQAGDSLRLSCAASERTSNYAMGWFRQAPGKEREFVADINHTGGRRKYGDSVKGRFTISRDNAENMVYLQMNNLQVEDTAVYYCATGLRYDVSGYAPDYRYWGRGTQVTVSS
B19: G17 (VHH)
VHH: EVQLVESGGGLVQAGGSLRLSCAASGVTISYWVMGWFRQAPGKEREFVARISWGGERTYYADSVKGRFAISRDNAKNTVYLQMNSLNAEDTAVYYCAADRTGWGHSNSRSEYDYWGQGTQVTVSS
B20: G29 (VHH)
VHH: QVQLVESGGGLVQAGDSLLLSCGTSGRTFSSNTMGWFRQAPGKGREFVATITASGRGTNYGDSVRGRFTISRDNDKNTVYLQMNNLKPDDTGVYTCAASDSPYGSRWIEAYGYWGQGTQVTVSS
B21: G9 (VHH)
VHH: DVQLVESGGGLVQPGGSLRLSCAASGLTLDNYDMAWFRQAPGKEREFVTAINYVGGRTYADSVRGRFTISRDDTKNTVYLQMNSLKPEDTAVYYCAAGLQYGITSLRTRNYNYWGQGTQVTVSS
B22: G6 (VHH)
VHH: QVQLVESGGGLVQAGGSLRLSCAASGRTISSYAMGWFRQAPGKERELVARITSSAGSTYYADSVKGRFTISRDNAKNTMYLQMNSLKPEDTAVYYCAVEIVRAQYDYWGQGTQVTVSS
B23: G46 (VHH)
VHH: DVQLVESGGGLVQAGGSLRLSCAASGRTFSRYHMGWFRQAPGKERDVVAAISWSGDSTYYADSVKGRFTISKDNAKNTVYLQMDNLKPEDTAVYYCNVRGGVLRPYDYWGQGTQVTVSS
B24: G22 (VHH)
VHH: QVQLVESGGGSVQAGGSLRLSCAASGRTFSSYSMAWFRQAPGKEREFVAVMNCRYGDTDYPDSVKGRFTMSRDNAKNTLYLQMNSLKPEDTAVYYCAAKLIAYCGSGYYYRRNDYGYWGQGTQVTVSS
B25: G87 (VHH)
VHH: B24 VHH with Q1E, S11L, G16D, S33N, M34L, A35G, Q82E, S85N, L100V, I101L
B26: G34 (VHH)
VHH: QVQLVESGGGLVQAGDSLRLSCAASGRTFSRYAMAWFRQAPGKEREFVAGISWTGRFTYYADSVKGRFTISRDDAKNTVYLQMNNLKPEDTGLYFCKVGDPYGVGLREYEWWGPGTQVTVSS
B27: G72 (VHH)
VHH: QVQLVESGGGLVQPGGSLRLSCATSGSTFSINGIGWYRQVPGIEREFVAGVSTDGKANYADSVAGRFTISINDGKNTAYLQMNSLKPEDTAVYYCNVDSTKGYYWGQGTQVTVSS
B28: G81 (VHH)
VHH: EVQLVESGGELVQAGGSLRLSCAASGRTDSVTRMAWFRQAPGKEREFVAAITWSSGYTYYPDSVKGRFTISRDNAKNTMYLQMNSLKAEDTAVYICAAAVGVISEYNSWGQGTQVTVSS

Assays:
[1] = target: T1, glutathione S-transferase (UniProt P08515 1-218 = GST); test: indirect ELISA, GST coated;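 note: nanobody dilution series starting at 10 µM binding plate-bound antigen, HRP anti-His or anti-T7 tag detection, TMB absorbance at 450 nm, logIC50 from four-parameter logistic fit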
T1 construct: Expressed in E. coli, purified on GSH resin; also called GST
T1 sequence (P08515 whole entry): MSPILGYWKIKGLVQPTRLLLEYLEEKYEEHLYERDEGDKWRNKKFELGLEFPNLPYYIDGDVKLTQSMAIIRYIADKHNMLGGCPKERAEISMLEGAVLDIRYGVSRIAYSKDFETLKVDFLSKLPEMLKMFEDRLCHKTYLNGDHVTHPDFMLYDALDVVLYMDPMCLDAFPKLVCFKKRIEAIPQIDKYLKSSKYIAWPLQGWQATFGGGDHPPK
Description: (§1) Indirect ELISA was carried out to evaluate the camelid immune response of an antigen and to quantify the relative affinities of antigen-specific Nbs. An antigen was coated onto a 96-well ELISA plate (R&D system) at an amount of approximately 1-10 ng per well in a coating buffer (15 mM sodium carbonate, 35 mM sodium bicarbonate, pH 9.6) overnight at 4° C. The well surface was then blocked with a blocking buffer (DPBS, 0.05% Tween 20, 5% milk) at room temperature for 2 hours. To test an immune response, the immunized serum was serially 5-fold diluted in the blocking buffer. The diluted sera were incubated with the antigen coated wells at room temperature for 2 hours. HRP-conjugated secondary antibodies against llama Fc (Bethyl) were diluted 1:10,000 in the blocking buffer and incubated with each well for 1 hour at room temperature. […] Nbs of both specific binders for test and scramble negative controls were serially 10-fold diluted from 10 μM to 1 μM in the blocking buffer. HRP-conjugated secondary antibodies against His-tag (Genscript) or T7-tag (Thermo) were diluted 1:5,000 or 1:10,000 in the blocking buffer and incubated for 1 hour at room temperature. Three washes with 1x PBST (DPBS, 0.05% Tween 20) were carried out to remove nonspecific absorbance between incubations. After the final wash, the samples were further incubated under dark with freshly prepared w3,3′,5,5′-Tetramethylbenzidine (TMB) substrate for 10 mins at room temperature to develop the signals. After the STOP solution (R&D system), the plates were read at multiple wavelengths (450 nm and 550 nm) on a plate reader (Multiskan GO, Thermo Fisher). A false positive Nb binder was defined if any of the following two criteria was met: i) the ELISA signal can only be detected at a concentration of 10 μM and was under detected at 1 μM concentration. ii) At 1 μM concentration, a pronounced signal decrease (by more than 10-fold) was detected compared to the signal at 10 μM, while there were no signals can be detected at lower concentrations. The raw data was processed by Prism 7 (GraphPad) to fit into a 4PL curve and to calculate logIC50.

[2] = target: T1, glutathione S-transferase; test: SPR, GST immobilised;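 note: nanobody analytes injected as dilution series over three orders of magnitude across antigen on a CM5 chip, kinetics fitted by 1:1 Langmuir model, optionally with mass transfer, duplicate runs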
Description: Nb affinity measurement by SPR. Surface plasmon resonance (SPR, Biacore 3000 system, GE Healthcare) was used to measure Nb affinities. Antigen proteins immobilized on the activated CM5 sensor-chip by the following steps. Protein analytes were diluted to 10-30 μg/ml in 10 mM sodium acetate, pH 4.5, and were injected into the SPR system at 5 μl/min for 420 s. The surface of the sensor was then blocked by 1 M ethanolamine-HCl (pH 8.5). For each Nb analyte, a series of dilution (spanning three orders of magnitude) was injected in HBS-EP+ running buffer (GE-Healthcare) containing 2 mM DTT, at a flow rate of 20-30 μl/min for 120-180 s, followed by a dissociation time of 5-20 mins based on dissociation rate. Between each injection, the sensor chip surface was regenerated with the low pH buffer containing 10 mM glycine-HCl (pH 1.5-2.5), or high pH buffer of 20-40 mM NaOH (pH 12-13). The regeneration was performed with a flow rate of 40-50 μl/min for 30 s. The measurements were duplicated and only highly reproducible data was used for analysis. Binding sensorgrams for each Nb were processed and analyzed using BIAevaluation by fitting with 1:1 Langmuir model or 1:1 Langmuir model with mass transfer.

human serum albumin = target: T2, human serum albumin (human, UniProt P02768 25-609); test: indirect ELISA, HSA coated
T2 construct: In the mutant screen wild type HSA came from medium of transfected HeLa cells; also called HSA; wild type HSA
T2 sequence (P02768 25-609 limits assumed): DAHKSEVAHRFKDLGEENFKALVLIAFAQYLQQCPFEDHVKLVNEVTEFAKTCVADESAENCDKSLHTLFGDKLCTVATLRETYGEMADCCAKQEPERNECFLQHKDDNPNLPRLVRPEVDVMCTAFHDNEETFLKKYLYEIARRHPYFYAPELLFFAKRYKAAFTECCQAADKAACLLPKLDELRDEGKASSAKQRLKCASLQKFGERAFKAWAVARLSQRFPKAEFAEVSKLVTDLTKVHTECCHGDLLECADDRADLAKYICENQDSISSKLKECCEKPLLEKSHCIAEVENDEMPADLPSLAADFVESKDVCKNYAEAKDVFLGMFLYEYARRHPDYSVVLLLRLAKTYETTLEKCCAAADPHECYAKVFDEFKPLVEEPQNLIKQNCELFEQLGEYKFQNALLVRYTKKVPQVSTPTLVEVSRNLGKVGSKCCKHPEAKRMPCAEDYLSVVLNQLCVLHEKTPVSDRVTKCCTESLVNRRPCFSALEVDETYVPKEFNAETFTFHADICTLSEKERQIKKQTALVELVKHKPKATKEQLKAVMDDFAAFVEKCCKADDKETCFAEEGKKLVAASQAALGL
Description: as §1

Binder | ELISA affinity (LogIC50 (oD450nm)) [1] | Kd [2] | koff [2] | kon [2] | binding result [1] | also measured
B1 | 7.22 | 0.504 nM | 0.000561 s⁻¹ | 1.11e+06 M⁻¹ s⁻¹ |  | 
B2 | 6.74 | 0.36 nM | 0.00017 s⁻¹ | 474000 M⁻¹ s⁻¹ |  | 
B3 |  |  |  |  | no binding (tested: Nb titrated from 10 µM) | 
B4 | 3.86 | 32.4 nM | 0.0127 s⁻¹ | 391000 M⁻¹ s⁻¹ |  | 
B5 |  |  |  |  | no binding (tested: Nb titrated from 10 µM) | 
B6 |  |  |  |  | no binding (tested: Nb titrated from 10 µM) | 
B7 |  |  |  |  |  | binding result (human serum albumin): no binding (tested: Nb titrated from 10 µM)
B8 | 8.72 | 0.761 nM | 0.000751 s⁻¹ | 987000 M⁻¹ s⁻¹ |  | 
B9 | 2.67 | 2000 nM | 0.00204 s⁻¹ |  |  | 
B10 | 1.6 | 126 nM | 0.000753 s⁻¹ | 5930 M⁻¹ s⁻¹ |  | 
B11 |  |  |  |  | no binding (tested: Nb titrated from 10 µM) | 
B12 |  |  |  |  | no binding (tested: Nb titrated from 10 µM) | 
B13 |  |  |  |  |  | ELISA affinity (LogIC50 (oD450nm)) (human serum albumin): 4.92
B14 |  |  |  |  | no binding (tested: Nb titrated from 10 µM) | 
B15 | 1.89 | 268 nM | 0.000809 s⁻¹ | 3020 M⁻¹ s⁻¹ |  | 
B16 | 3.76 | 77 nM | 0.00107 s⁻¹ | 13900 M⁻¹ s⁻¹ |  | 
B17 |  |  |  |  | no binding (tested: Nb titrated from 10 µM) | 
B18 |  |  |  |  |  | binding result (human serum albumin): no binding (tested: Nb titrated from 10 µM)
B19 | 9.81 | 0.0217 nM | 2.92e-05 s⁻¹ | 1.34e+06 M⁻¹ s⁻¹ |  | 
B20 |  |  |  |  | no binding (tested: Nb titrated from 10 µM) | 
B21 | 8.05 | 0.177 nM | 0.000353 s⁻¹ | 2e+06 M⁻¹ s⁻¹ |  | 
B22 |  |  |  |  | no binding (tested: Nb titrated from 10 µM) | 
B23 |  |  |  |  | no binding (tested: Nb titrated from 10 µM) | 
B24 | 2.07 | 40.5 nM | 0.00125 s⁻¹ | 30900 M⁻¹ s⁻¹ |  | 
B25 |  |  |  |  | no binding (tested: Nb titrated from 10 µM) | 
B26 | 5.32 | 17.6 nM | 0.000462 s⁻¹ | 26300 M⁻¹ s⁻¹ |  | 
B27 |  |  |  |  | no binding (tested: Nb titrated from 10 µM) | 
B28 |  |  |  |  | no binding (tested: Nb titrated from 10 µM) | 
